Columns and labels:
[1] = tested on: c-src tyrosine kinase; assay: c-src immune complex kinase assay in RANK −/− osteoclast precursors infected with RANK retrovirus; type: cell-based, mouse
Description: Experiments were conducted in which DNA encoding wild-type or human RANK/TRAF6 binding mutant (RANK Δ340-421) was introduced into hematopoietic cells isolated from RANK −/− mice. Full-length and mutant human RANK DNAs were subcloned into the pBMNZ retroviral vector as previously described (Kinsella and Nolan, 1996, Human Gene Therapy 7:1405-1413). Infectious RANK-containing retrovirus was produced in 293-E Phoenix packaging cells as described (Kinsella and Nolan, 1996). Supernatants from these cells were used as a source of infectious virus particles.
The generation of the RANK −/− mice used in these assays has been described previously (Dougall et al., 1999). Spleen cells were isolated from 3-6 week old RANK−/− mice and enriched for osteoclast precursors by depleting the initial cell population of various types of cells other than osteoclast precursors. For this “depletion” step, the cells were incubated with biotinylated antibodies against CD3 (specific for T cells), Ter-119 (specific for erythrocytes), and GR-1 (specific for granulocytes). After the antibodies had bound to their respective target cells, streptavidin-conjugated magnetic beads were added to the culture, and the mixture of cells was passed over magnetic columns (MACS depletion columns; MILLTENNYI). […]
To induce c-src and F-actin rings, recombinant mRANK-L/leucine zipper protein was added to the cultures at a concentration of 1 μg/ml for various times after which the cells were lysed in a buffer containing 50 mM HEPES (pH 7.2), 10% glycerol, 250 mM NaCl and 1% Triton X-100. […] C-src activity in the immune complex was monitored using a commercially available assay kit (Upstate Biotechnology, Lake Placid, N.Y.). […] The phosphorylated substrate peptide was then separated from the residual labeled ATP using phosphocellulose paper and labeled peptide was quantified using a scintillation counter. […]

[2] = tested on: murine MMP-9 promoter (SEQ ID NO:11); assay: murine MMP-9 promoter/luciferase reporter in 293/EBNA cells; type: cell-based; settings: 40 ng reporter
Text: (§1) This example describes the activation of the TRAP promoter. A 2.6 kb DNA fragment containing the human TRAP promoter was obtained by digesting the plasmid pBL2HT2.2 with the restriction endonuclease ApaI. The cloning of the human TRAP gene 5′ region and the construction of pBL2HT2.2 are fully described in Reddy et al. (Bone 16:587-593 (1995)). A DNA containing the mouse TRAP promoter (SEQ ID NO:12) and a DNA containing the murine MMP-9 promoter (SEQ ID NO:11) also were used for these experiments. DNAs containing the promoters were fused to the luciferase reporter gene. These promoter/reporter constructs were transfected into human 293/EBNA cells along with various combinations of expression vectors that encoded full-length human RANK (SEQ ID NO:2) and human full-length RANK-L proteins (SEQ ID NO:6).
For the murine MMP-9 promoter experiments, 4.1 kb of the murine MMP-9 promoter (SEQ ID NO:11) were fused to a luciferase gene and transfected (40 ng) into 293/EBNA cells. Transfection of either RANK (SEQ ID NO:2) alone or the combination of RANK (SEQ ID NO:2) plus RANK-L (SEQ ID NO:6) increased reporter expression 2.5-fold.

[3] = tested on: mouse TRAP promoter (SEQ ID NO:12); assay: mouse TRAP promoter/luciferase reporter in 293/EBNA cells; type: cell-based; settings: 24 hours after transfection, 0.4 ng RANK vector, 20 ng RANK-L vector
Text: as §1
For the mouse TRAP promoter (SEQ ID NO:12), 2×10^5 293/EBNA cells were transfected using DEAE/dextran with 40 ng of a plasmid encoding approximately 2 kb of the mouse TRAP promoter (SEQ ID NO:12) fused to a luciferase reporter, 20 ng of an expression vector encoding RANK-L (SEQ ID NO:6), and 0.4 ng of an expression vector encoding RANK (SEQ ID NO:2). Twenty four hours after transfection, luciferase activity in cell lysates was measured according to manufacturer's instructions (Promega) using a EG&G/Berthold luminometer. […]

B1: wild type RANK: full-length human RANK, receptor activator of NF-κB (SEQ ID NO:2), expressed from vector or retrovirus (protein, listed as Homo sapiens)
chain: MAPRARRRRPLFALLLLCALLARLQVALQIAPPCTSEKHYEHLGRCCNKCEPGKYMSSKCTTTSDSVCLPCGPDEYLDSWNEEDKCLLHKVCDTGKALVAVVAGNSTTPRRCACTAGYHWSQDCECCRRNTECAPGLGAQHPLQLNKDTVCKPCLAGYFSDAFSSTDKCRPWTNCTFLGKRVEHHGTEKSDAVCSSSLPARKPPNEPHVYLPGLIILLLFASVALVAAIIFGVCYRKKGKALTANLWHWINEACGRLSGDKESSGDSCVSTHTANFGQQGACEGVLLLTLEEKTFPEDMCYPDQGGVCQGTCVGGGPYAQGEDARMLSLVSKTEIEEDSFRQMPTEDEYMDRPSQPTDQLLFLTEPGSKSTPPFSEPLEVGENDSLSQCFTGTQSTVGSESCNCTEPLCRTDWTPMSSENYLQKEVDSGHCPHWAASPSPNWADVCTGCRNPPGEDCEPLVGSPKRGPLPQCAYGMGLPPEEEASRTEARDQPEDGADGRLPSSARAGAGSGSSPGGQSPASGNVTGNSNSTFISSGQVMNFKGDIIVVYVSQTSQEGAAAAAEPMGRPVQEETLARRDSFAGNGPRFPDPCGGPEGLREPEKASRPVQEQGGAKA
32P incorporated into a c-src-specific substrate versus extracts from cells defective in RANK ([1]; cell extracts following differentiation): about 15 fold
c-src activity ([1]; cells differentiated after retroviral infection, background = uninfected RANK −/− cells): high levels of c-src activity
increase of reporter expression (luciferase) [2]: 2.5 fold
increase of reporter expression (luciferase) [3]: approximately 2 fold

From patent publication US7572594B2, “Screening assays for agonists or antagonists or receptor activator of NF-κB” (Immunex Corporation, priority 2000, dated 2009)
